Target: T1, 6His-FIP5 (human, UniProt Q9BXF6 1-653)
T1 sequence (looked up): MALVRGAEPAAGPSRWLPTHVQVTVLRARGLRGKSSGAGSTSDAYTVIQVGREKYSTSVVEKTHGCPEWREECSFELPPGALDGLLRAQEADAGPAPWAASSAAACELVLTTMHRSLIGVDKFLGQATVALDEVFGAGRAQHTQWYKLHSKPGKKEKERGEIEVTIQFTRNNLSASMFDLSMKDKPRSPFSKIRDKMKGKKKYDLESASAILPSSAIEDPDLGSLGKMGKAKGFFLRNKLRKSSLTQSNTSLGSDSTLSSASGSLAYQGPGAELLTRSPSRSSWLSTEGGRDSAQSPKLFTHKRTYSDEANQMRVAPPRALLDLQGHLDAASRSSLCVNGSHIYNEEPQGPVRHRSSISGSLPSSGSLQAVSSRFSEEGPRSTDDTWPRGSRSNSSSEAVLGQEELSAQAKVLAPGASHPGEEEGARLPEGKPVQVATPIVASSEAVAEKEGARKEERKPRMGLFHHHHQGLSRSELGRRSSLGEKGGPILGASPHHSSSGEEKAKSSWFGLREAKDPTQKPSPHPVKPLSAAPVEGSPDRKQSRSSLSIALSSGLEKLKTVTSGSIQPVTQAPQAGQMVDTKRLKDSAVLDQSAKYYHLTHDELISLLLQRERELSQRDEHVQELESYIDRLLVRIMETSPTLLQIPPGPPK
Experiment: ITC

B1: GST-SNX18 (natural protein, human, UniProt Q96RF0 1-628, looked up)
chain: MALRARALYDFRSENPGEISLREHEVLSLCSEQDIEGWLEGVNSRGDRGLFPASYVQVIRAPEPGPAGDGGPGAPARYANVPPGGFEPLPVAPPASFKPPPDAFQALLQPQQAPPPSTFQPPGAGFPYGGGALQPSPQQLYGGYQASQGSDDDWDDEWDDSSTVADEPGALGSGAYPDLDGSSSAGVGAAGRYRLSTRSDLSLGSRGGSVPPQHHPSGPKSSATVSRNLNRFSTFVKSGGEAFVLGEASGFVKDGDKLCVVLGPYGPEWQENPYPFQCTIDDPTKQTKFKGMKSYISYKLVPTHTQVPVHRRYKHFDWLYARLAEKFPVISVPHLPEKQATGRFEEDFISKRRKGLIWWMNHMASHPVLAQCDVFQHFLTCPSSTDEKAWKQGKRKAEKDEMVGANFFLTLSTPPAAALDLQEVESKIDGFKCFTKKMDDSALQLNHTANEFARKQVTGFKKEYQKVGQSFRGLSQAFELDQQAFSVGLNQAIAFTGDAYDAIGELFAEQPRQDLDPVMDLLALYQGHLANFPDIIHVQKGKAWPLEQVIWSVLCRLKGATLTAVPLWVSESYSTGEEASRDVDAWVFSLECKLDCSTGSFLLEYLALGNEYSFSKVQRVPLMTVLSF
  Kd: 1.56 µM

Source: article PMC3187708 (The Journal of Cell Biology, 2011)
